Experimental data published in paper PMC5736309.

Molecular target: Y1F Rpb1 (Rpb1 with a CTD of 26 FSPTSPS repeats) (S. cerevisiae)
Test: co-IP

B1: 3HA-tagged Nrd1 (natural protein)
chain: MQQDDDFQNFVATLESFKDLKSGISGSRIKKLTTYALDHIDIESKIISLIIDYSRLCPDSHKLGSLYIIDSIGRAYLDETRSNSNSSSNKPGTCAHAINTLGEVIQELLSDAIAKSNQDHKEKIRMLLDIWDRSGLFQKSYLNAIRSKCFAMDISNNTANTASQQLSLDPKQRSKQILSNLKKSPPLNLNISLPTDLTSTDPAKQQAALFQVIAALQKHFKTLPSHTSVGTVAPPQAHTITEYGSRRERERERERYNSRRNRSRSPPAPFSQPSTGRKDRYPSVAQDQYSIGAPNTTFGTNNHHLYPDELNVSNNPHYRPKPVSYDSTLPPDHIKVYSRTLFIGGVPLNMKEWDLANVLKPFAEVQSVILNNSRKHAFVKVYSRHEAENVLQNFNKDGALPLRTRWGVGFGPRDCCDYQHGYSIIPMHRLTDADKKWSVSAQWGGTSGQPLVTGIVFEEPDIIVGEGVSSKAISQKMPTDSGRNGPRSGKPNKSGSISSISPVPYGNAPLASPPPQQYVQPMMQQPYGYAPNQPLPSQGPAAAAPPVPQQQFDPTAQLNSLMNMLNQQQQQQQQS
fold change in binding against WT Rpb1: 7.3 fold
